Assay results: paper PMC5887453 (Nucleic Acids Research, 2018)

Legend:
Assay in all cases: native gel or EMSA
PhoEF-2 F171S = molecular target: T1, PhoEF-2 F171S (Pyrococcus horikoshii, UniProt O59521 1-732, F171S)
T1 sequence (looked up): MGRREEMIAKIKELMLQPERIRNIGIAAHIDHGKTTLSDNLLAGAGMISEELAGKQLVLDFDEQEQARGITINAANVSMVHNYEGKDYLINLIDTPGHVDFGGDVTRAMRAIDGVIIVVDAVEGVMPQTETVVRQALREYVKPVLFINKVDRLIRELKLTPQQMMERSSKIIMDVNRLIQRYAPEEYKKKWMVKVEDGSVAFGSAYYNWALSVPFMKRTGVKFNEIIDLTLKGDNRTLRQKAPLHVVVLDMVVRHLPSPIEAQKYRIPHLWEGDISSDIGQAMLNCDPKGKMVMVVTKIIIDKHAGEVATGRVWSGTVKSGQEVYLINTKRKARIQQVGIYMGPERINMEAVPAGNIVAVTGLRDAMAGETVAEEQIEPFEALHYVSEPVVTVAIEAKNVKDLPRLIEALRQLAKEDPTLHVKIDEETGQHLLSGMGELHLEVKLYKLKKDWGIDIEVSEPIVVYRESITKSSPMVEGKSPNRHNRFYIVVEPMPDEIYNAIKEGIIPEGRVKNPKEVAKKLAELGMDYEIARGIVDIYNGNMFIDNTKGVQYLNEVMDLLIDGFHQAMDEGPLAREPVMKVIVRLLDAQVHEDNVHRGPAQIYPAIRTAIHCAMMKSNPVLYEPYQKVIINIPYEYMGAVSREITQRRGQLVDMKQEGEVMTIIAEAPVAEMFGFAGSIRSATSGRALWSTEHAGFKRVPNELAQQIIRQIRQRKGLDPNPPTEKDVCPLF

PhoEF-2 V198S = molecular target: T2, PhoEF-2 V198S (Pyrococcus horikoshii, UniProt O59521 1-732, V198S)
T2 sequence (looked up): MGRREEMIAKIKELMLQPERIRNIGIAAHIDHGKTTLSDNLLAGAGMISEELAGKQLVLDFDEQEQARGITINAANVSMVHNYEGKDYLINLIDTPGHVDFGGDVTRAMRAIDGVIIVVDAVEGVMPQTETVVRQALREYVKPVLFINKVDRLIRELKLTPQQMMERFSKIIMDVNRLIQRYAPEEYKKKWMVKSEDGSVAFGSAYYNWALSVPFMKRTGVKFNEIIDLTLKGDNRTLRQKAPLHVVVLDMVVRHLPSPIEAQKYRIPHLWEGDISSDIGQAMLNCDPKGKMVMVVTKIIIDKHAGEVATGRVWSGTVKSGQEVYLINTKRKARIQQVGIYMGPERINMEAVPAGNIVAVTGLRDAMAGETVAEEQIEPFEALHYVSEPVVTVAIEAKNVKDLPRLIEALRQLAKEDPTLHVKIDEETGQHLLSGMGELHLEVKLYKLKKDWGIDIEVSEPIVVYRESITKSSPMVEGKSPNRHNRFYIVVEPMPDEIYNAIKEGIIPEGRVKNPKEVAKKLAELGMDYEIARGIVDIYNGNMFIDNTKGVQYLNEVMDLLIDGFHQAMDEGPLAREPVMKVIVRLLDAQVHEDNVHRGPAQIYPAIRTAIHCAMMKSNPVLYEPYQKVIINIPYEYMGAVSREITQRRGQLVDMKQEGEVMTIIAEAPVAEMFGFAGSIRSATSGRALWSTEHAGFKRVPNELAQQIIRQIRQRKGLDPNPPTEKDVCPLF

PhoEF-2 P164S = molecular target: T3, PhoEF-2 P164S (Pyrococcus horikoshii, UniProt O59521 1-732, P164S)
T3 sequence (looked up): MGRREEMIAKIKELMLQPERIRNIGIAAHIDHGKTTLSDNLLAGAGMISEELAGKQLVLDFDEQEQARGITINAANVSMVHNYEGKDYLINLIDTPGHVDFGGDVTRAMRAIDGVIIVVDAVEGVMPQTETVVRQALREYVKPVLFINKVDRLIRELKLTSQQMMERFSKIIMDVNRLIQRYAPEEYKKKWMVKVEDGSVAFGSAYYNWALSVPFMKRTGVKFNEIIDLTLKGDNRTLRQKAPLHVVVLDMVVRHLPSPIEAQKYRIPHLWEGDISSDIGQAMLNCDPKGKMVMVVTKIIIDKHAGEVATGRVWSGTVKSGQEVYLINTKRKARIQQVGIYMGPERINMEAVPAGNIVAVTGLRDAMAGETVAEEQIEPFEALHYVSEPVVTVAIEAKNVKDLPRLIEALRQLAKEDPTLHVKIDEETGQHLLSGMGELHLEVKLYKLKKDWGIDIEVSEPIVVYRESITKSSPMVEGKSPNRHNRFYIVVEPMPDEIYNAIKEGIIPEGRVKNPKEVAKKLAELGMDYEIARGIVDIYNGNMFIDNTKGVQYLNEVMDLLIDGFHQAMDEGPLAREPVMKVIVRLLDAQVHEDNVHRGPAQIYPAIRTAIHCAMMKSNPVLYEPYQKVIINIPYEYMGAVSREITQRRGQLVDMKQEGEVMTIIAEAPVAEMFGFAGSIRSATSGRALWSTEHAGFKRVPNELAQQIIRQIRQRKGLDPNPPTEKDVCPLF

Measured: binding result

B1: Pyrococcus horikoshii ribosomal stalk protein P1 (natural protein, UniProt O57705 1-108, looked up)
chain: MEYVYAALLLHSVGKEINEENLKAVLQAAGVEPEEARIKALVAALEGVNIDEVIEKAAMPVAVAAAPAAAPAEAGGEEKKEEEKKEEEEKEEEVSEEEALAGLSALFG
modifications: in the SPR only: biotin on amino groups via a PEG linker (EZ-Link NHS-PEG4-Biotin)
binds: all assays above
